Target: C. elegans cofactor-independent phosphoglycerate mutase (iPGM) (C. elegans) (UniProt G5EFZ1)

## Ce-2S (Ce-2 with Cys14Ser) (peptide)
  IC50 of inhibition of PGM activity, enzyme-coupled bioluminescent assay: 10 nM
